“Also recorded” adds a separate entry of the source. Where two headings read alike, the source gives them in different places.
Experiments:
[1] = tested on: Clostridium perfringens DSM756; format: cell-based; conditions: for Diameter of clearing zone (mm): lysozymes 100 μg/ml, Bacitracin zinc salt 50 μg/ml; for Antimicrobial activity against Clostridium perfringens (in words): RDA
[2] = tested on: Exiguobacterium undea (DSM14481); experiment: Lysozyme activity turbidity assay (optical density drop at 540 nm); format: biochemical, Exiguobacterium undae; conditions: for Lysozyme activity against Exiguobacterium undea (in words): OD drop assay
[3] = tested on: Micrococcus lysodeikticus ATTC No. 4698; experiment: as above; conditions: for Lysozyme activity against Micrococcus lysodeikticus (in words): OD drop assay
[4] = Binding of LED to Avicel suspension (SDS gel of supernatant); conditions: for Binding of LED protein to crystalline cellulose (in words): 25 mM Na-Acetate, pH 4.5, 25 mM NaCl
[5] = tested on: Micrococcus lysodeiktikus ATCC No. 4698 cells; experiment: Binding of LED to M. lysodeiktikus suspension (SDS gel of supernatant); conditions: for Binding of LED protein to M. lysodiektikus cells (in words): 25 mM Na-Acetate, pH 4.5, 25 mM NaCl
[6] = tested conditions (1/10 MHB pH 7 and 1/2 MHB pH 6)

| Molecule | Diameter of clearing zone (mm) ([1]; Experiment 1, 1/2 MHB pH 6) | Diameter of clearing zone (mm) ([1]; Experiment 1, 1/10 MHB pH 7) | Diameter of clearing zone (mm) ([1]; Experiment 2, 1/10 MHB pH 7) | Antimicrobial activity against Clostridium perfringens (in words) ([1]; 50% MHB, pH 6) | Antimicrobial activity against Clostridium perfringens (in words) [1, 6] | Lysozyme activity against Exiguobacterium undea (in words) [2] | Lysozyme Activity against Exiguobacterium undae as measured by Optical Density Drop ([2]; assay pH 6 (Table 14)) | Lysozyme activity against Micrococcus lysodeikticus (in words) [3] | Lysozyme Activity against Micrococcus lysodeikticus as measured by Optical Density Drop ([3]; assay pH 6 (Table 14)) | other results |
| --- | --- | --- | --- | --- | --- | --- | --- | --- | --- | --- |
| SEQ ID NO: 267: mature GH24 lysozyme from Trichoderma harzianum, comprising LED (protein, listed as Trichoderma harzianum, mat_peptide (1)..(248), mature GH24 lysozyme from Trichoderma harzianum, comprising LED) YPITGDVVNCRTGPGTSYAIKKSYKKNQDISISCQTAGTSVNGNSIWDKTADGCYVADYYVKTGSSGYVTKKCTASSGGGSSSSYCKTINSAGVDLIAKWEGFVASPKPDPIGLPTVGYGHLCQQKNCREVKYKFPLTKTTAKELLLDDLPKYTKCLADYLNDKPKLNANQWAALTSWVFNVGCGNAKTSTLVKRLNNGEAANTVAAEELPKWRMAGGKVLPGLEARRKDEVKLFKTASSKQAYPKCQ | 12 mm | 10 mm | 8 mm | significant activity | showed antimicrobial activity | good activity | ++++ | good activity | +++ |  |
| SEQ ID NO: 264: mature GH24 lysozyme from Chaetomium thermophilum, comprising LED (protein, listed as Chaetomium thermophilum, mat_peptide (1)..(249), mature GH24 lysozyme from Chaetomium thermophilum, comprising LED) PASAYAITGDNVNCRSGPGTSYAVKKVYKKGTDVKISCQTTGTNINGNNLWDKTSDGCYVSDYYVKTGSNGYVTSKCSSSGGSTCAAPKSNQATVDLIAEFEGFRANIYTDAAGYATVGYGHKCQKAKCAEVKYKIPLSKADGKKLLADDMRSFEVCITNMLNSKAKLNYNQFGALVSWSFNVGCGAAKSSTLIKRLNNGENVNKVLSEELPKWNKAGGKVLQGLVRRRAAEVALAKKSGSSQALPVKC | 10 mm | 9 mm | 7 mm | significant activity | showed antimicrobial activity | good activity |  | good activity |  | Lysozyme Activity against Exiguobacterium undae as measured by Optical Density Drop ([2]; assay pH 6): ++++; Lysozyme Activity against Micrococcus lysodeikticus as measured by Optical Density Drop ([3]; assay pH 5): ++++ |
| SEQ ID NO: 273: mature LED (lysozyme enhancing domain) from Trichophaea saccata (protein, mat_peptide (1)..(73), mature LED (lysozyme enhancing domain) from Trichophaea saccata) YPVKTDLHCRSSPSTSASIVRTYSSGTEVQIQCQTTGTSVQGSNVWDKTQHGCYVADYYVKTGHSGIFTTKCG |  |  |  |  |  |  |  |  |  | Binding of LED protein to crystalline cellulose (in words) [4]: did not bind; Binding of LED protein to crystalline cellulose (in words) ([4]; listed as LED protein): could not bind; Result: LED band intensity on an SDS gel (supernatant after incubation) ([4]; Suspension: Avicel, 30 minutes room temperature): +++; Binding of LED protein to M. lysodiektikus cells (in words) [5]: binds; Binding of LED protein to M. lysodiektikus cells (in words) ([5]; listed as LED protein): able to bind; Result: LED band intensity on an SDS gel (supernatant after incubation) ([5]; Suspension: M. lysodeiktikus, 30 minutes room temperature): +; Result: LED band intensity on an SDS gel ([5]; Suspension: None (untreated LED sample, reference for both suspensions)): +++ |
| SEQ ID NO: 303: mature GH24 lysozyme from Geomyces auratus (protein, listed as Geomyces auratus, mat_peptide (1)..(250), mature GH24 lysozyme from Geomyces auratus) AFPITGSTVNCRTGPGTSHGVKTSYKKGHEVTVSCQTGGTSVNGNSIWDKTSDGCYVADYYVKTGSSGYVKPKCGSSSGGGGGSSCGAPKSNAATVNLIAEFEGFVSHVYTDATGHPTVGYGHLCSNSKCSGIGYSIPISKANAKKLLAKDMAIAEKCITAMINKSRTLNLNQYGALVSWAFNEGCGAAKSSTLIKRINNGEKPSTVIPQELPKWVYGGSSVLPGLVRRRNAEIALAKKATSSKALPAHC |  |  |  |  |  | good activity | ++++ | good activity | +++ |  |
| SEQ ID NO: 280: mature GH24 lysozyme from Acremonium alcalophilum, mature sequence of SEQ ID NO: 6 of WO 2013/076259; no LED (protein, listed as Acremonium alcalophilum, mat_peptide (1)..(157), no LED) QCVGPAINSAALNLIKEFEGWRPNIYRDPVGLPTVGYGHLCRDSSCSDVPYPIPLSVANGERLLRSDLATASSVVLNANQYGALVSWAFNVGCGATSTSTLIRRLNAGESPNTVAAQELPRWNKAGGQVLPGLVRRRAAEVELHRTSTSVRALPACS | 0 mm | 0 mm | 0 mm |  | do not have any activity; also recorded: did not inhibit growth |  |  | small amount of activity |  | Lysozyme Activity against Exiguobacterium undae as measured by Optical Density Drop ([2]; assay pH 3-7): −; Lysozyme Activity against Micrococcus lysodeikticus as measured by Optical Density Drop ([3]; assay pH 4.5): + |
| SEQ ID NO: 306: mature GH24 lysozyme from Ilyonectria rufa (protein, listed as Ilyonectria rufa, mat_peptide (1)..(240), mature GH24 lysozyme from Ilyonectria rufa) YKITGDNVNCRSGPGTSYSVKRSFKKGTDVTLSCQTTGENVLGTSIWDKTSYGCYVSDYYVKTGSSGFVVKKCGTCGAPKSNAATVNLISDFEGFRANIYKDAAGYPTVGYGHLCSNSRCTDVPYSIPLSKANGKNLLATDMTKFEKCITAMVSSSVTLNKNQYGALVSWAFNMGCGATKTSTLIKRLNQGQNVNTVLSTELPKWVYAGGKKLNGLVRRRNAEIALAKKKTTEKALPNKC |  |  |  |  |  | good activity | ++++ | good activity | ++ |  |

From patent US12324447B2, “Animal feed compositions and uses thereof” (priority 2015, dated 2025)
